Assays:
[1] = biological target: cynomolgus monkey CD96 on activated primary cynomolgus T cells (cynomolgus monkey); experiment: flow cytometry (MFI against concentration), activated primary cynomolgus T cells
[2] = biological target: full-length isoform 1 of human CD96 (SEQ ID NO: 127) expressed on CHO cells (human) (UniProt P40200); experiment: flow cytometry (MFI against concentration), CHO cells expressing human CD96 isoform 1
[3] = biological target: full-length isoform 2 of human CD96 (SEQ ID NO: 128) expressed on cells (human) (UniProt P40200); experiment: flow cytometry (MFI against concentration), CHO cells expressing human CD96 isoform 2
[4] = biological target: full-length isoform 2 of human CD96 (SEQ ID NO: 128) expressed on cells (human) (UniProt P40200); experiment: flow cytometry (MFI against concentration), Jurkat cells expressing human CD96 isoform 2
[5] = biological target: isoform 2 of cynomolgus monkey CD96 (SEQ ID NO: 133) expressed on CHO cells (cynomolgus monkey); experiment: flow cytometry (MFI against concentration), CHO cells expressing cynomolgus CD96 isoform 2

Substance: IgG1 isotype control antibody
- Area under the curve (AUC) [1]: 1270
- Area under the curve (AUC) [2]: 43500
- Area under the curve (AUC) [3]: 5810
- Area under the curve (AUC) [4]: 4760
- Area under the curve (AUC) [5]: 6030

Reference: patent publication US20210101977A1
